Assay [1] addresses T1, GDF11 (UniProt O95390).
T1 sequence: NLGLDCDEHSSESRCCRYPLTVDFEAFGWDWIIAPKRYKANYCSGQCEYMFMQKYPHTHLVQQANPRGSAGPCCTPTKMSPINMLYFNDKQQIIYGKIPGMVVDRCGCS

The target in assay [2] is activin A (UniProt P08476).
The target in assay [3] is T2, myostatin (MSTN) (UniProt O14793).
T2 sequence: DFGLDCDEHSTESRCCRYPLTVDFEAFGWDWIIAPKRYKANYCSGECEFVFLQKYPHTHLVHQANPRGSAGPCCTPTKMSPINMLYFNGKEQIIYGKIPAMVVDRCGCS

The results in this text go back to paper PMC4547976.

Chain of UniProt P08476 (P08476 311-426): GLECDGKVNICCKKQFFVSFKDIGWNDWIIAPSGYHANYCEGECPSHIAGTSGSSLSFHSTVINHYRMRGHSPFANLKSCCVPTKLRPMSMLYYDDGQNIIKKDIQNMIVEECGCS

In assay [1], “MBP-FST288 (chicken follistatin FST288 fused to maltose-binding protein) (natural protein)” returned an IC50 of suppression of 1 nM GDF11 activity, pGL3-(CAGA)12 luciferase reporter in HEK293 cells (180-0 nM FST-type protein) of 0.00164 µM. Besides, the IC50 of suppression of 1 nM activin A activity, pGL3-(CAGA)12 luciferase reporter in HEK293 cells (180-0 nM FST-type protein) in assay [2] stood at 0.00396 µM. In addition, the IC50 of suppression of 1 nM MSTN activity, pGL3-(CAGA)12 luciferase reporter in HEK293 cells (180-0 nM FST-type protein) in assay [3] is 0.00201 µM.
“MBP-FST315 (MBP-fused chicken follistatin FST315) (from UniProt Q90844 29-343) (natural protein)”: in assay [1], the IC50 of suppression of 1 nM GDF11 activity, pGL3-(CAGA)12 luciferase reporter in HEK293 cells was found to be 0.00635 µM. Also, in assay [3], the IC50 of suppression of 1 nM MSTN activity, pGL3-(CAGA)12 luciferase reporter in HEK293 cells came out at 0.00481 µM.
As for “MBP-NDFSD1 (chicken follistatin N-terminal domain and FSD1 fused to maltose-binding protein) (domain or fragment)”, the IC50 of suppression of 1 nM GDF11 activity, pGL3-(CAGA)12 luciferase reporter in HEK293 cells (180-0 nM FST-type protein) in assay [1] is 0.0579 µM. The substance also yielded an IC50 of suppression of 1 nM activin A activity, pGL3-(CAGA)12 luciferase reporter in HEK293 cells (180-0 nM FST-type protein) in assay [2] of 0.0153 µM. In assay [3], this substance came in with an IC50 of suppression of 1 nM MSTN activity, pGL3-(CAGA)12 luciferase reporter in HEK293 cells (180-0 nM FST-type protein) of 0.0689 µM.
Substance “MBP-NDFSD1/2 (chicken follistatin N-terminal domain, FSD1 and FSD2 fused to maltose-binding protein) (domain or fragment)” showed an IC50 of suppression of 1 nM GDF11 activity, pGL3-(CAGA)12 luciferase reporter in HEK293 cells (180-0 nM FST-type protein) in assay [1] of 0.00356 µM. In assay [2], this substance registered an IC50 of suppression of 1 nM activin A activity, pGL3-(CAGA)12 luciferase reporter in HEK293 cells (180-0 nM FST-type protein) of 0.00859 µM. In assay [3], this substance returned an IC50 of suppression of 1 nM MSTN activity, pGL3-(CAGA)12 luciferase reporter in HEK293 cells (180-0 nM FST-type protein) of 0.0105 µM.
On to “MBP-NDFSD1/1 (chicken follistatin N-terminal domain, FSD1 and a second FSD1 fused to maltose-binding protein) (domain or fragment)”, for which the IC50 of suppression of 1 nM GDF11 activity, pGL3-(CAGA)12 luciferase reporter in HEK293 cells (180-0 nM FST-type protein) in assay [1] was found to be 0.0262 µM. Also, the IC50 of suppression of 1 nM MSTN activity, pGL3-(CAGA)12 luciferase reporter in HEK293 cells (180-0 nM FST-type protein) in assay [3] was 0.064 µM.
